A short description of the data set: soluble fraction after stress (log2 fold change); higher = more stays soluble; pooled small domains, quantitative proteomics. Particulars: stress: pH 4. Summed up: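 Following acid stress at pH 4, the amount of each small protein domain still soluble was measured in pooled custom libraries by high-throughput quantitative proteomics. Its fold change, on a log2 scale, is higher when more of the domain stayed soluble. This fold change is taken as a measure of aggregation propensity.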
With “HMIQAGDLVFIWNPKKGDNFLIKVTPGMSQGTHFGQIKHTELMEREYGEGIVTPKGEVYYLLRPTLAGYTR”, the “soluble fraction (log2)” value is -1.3.

Take “HMIQIGEQIRYYRTKIGISQEALALMADINPAYIGQIERGIKSPTVNTIKKIANAMGINLHTLFT”: the “soluble fraction (log2)” value was -0.434. Regarding “HMIQKTHPALEIVKEYFSSQAASEFEAERFFNYYTSNGWLIGGKTKMKDWQAAARNWILNTAK”, the “soluble fraction (log2)” value was -0.255. Take “HMIQNEITLMLQVNGKLRGQIQVPSDASKEQIEQLAKDSEAAQKALAGASPKKIIVVPGRLVNIV”: the “soluble fraction (log2)” value is 0.183. Then “HMIQQFTYAFAKDKGVVVLPGRDVLTLGMRAGADPLVLLEARRALGSSFELEPLDRDTYERTLADVFTADA”, with -1.41. “HMIQRLNVNTEVLSTYIRNSNTPIEYLRQKLPNIDKFLKGELEPTFNQVYALSKLINIPTGLLLLKEPIS”: the “soluble fraction (log2)” value worked out at 0.359. With “HMIQSEQIPFSKFLKEVDSGRVVQVEIQGNNINGVLSDGSKFKTYSPNYPELVGKLSDKGVSIVASPV”, the “soluble fraction (log2)” value was determined as 0.0829. For “HMIQTKNVTFTINEKTKIANIPLKSLKILSQEDNRITLSYEKNSLKIDEIISYFSDKNINILDITTD”, the “soluble fraction (log2)” value was -1.05.

Regarding “HMIQYRKILELHFKDISQRTISTSVGSSRNTVSDVIKRSEQLGLERLTDNMNNRWLEEFLFPEKQ”, the “soluble fraction (log2)” value was -0.177. As to “HMIRALVPGQTLHGEIVGRNGGEVQVRLAEDMILNARVDQNIYLELGKDLTFEVKNNGATLTLSPL”, the “soluble fraction (log2)” value is -0.552. With “HMIRDTTMYPVSVNGKKRYEWTVSKSISDDELKQQVLELEEIKKWIEGHEIKKLIFVPGRAINIV”, the “soluble fraction (log2)” value was -0.743.

“HMIRDVDYNTFVSMVQEGKVGQVEIQEQNNRILFTDKDERTVYKTAMVPDSDLISRLLEAGVSTS”: the “soluble fraction (log2)” value was -0.737. Consider “HMIRTGEVVTGKVINVKEDQIILNIGFKSDGIITRNEYTNDNSLDLRTVVHEGDEIEAKVLKVNDGEGQVV”, for which the “soluble fraction (log2)” value stood at 0.12.

With “HMIRVGRPQYKRGEFVSFDFDNGRKKTEMYGRVDVIDSYGTFGQGREVSYDIRASDGILYKHIPESSVYGF”, the “soluble fraction (log2)” value turned out to be 0.28. For the sequence “HMIRVVSIEDQPWFVAADVLKSLGMPTDKGVGKYLLALGSDERMLTTHGQIGGKGMAVTTIISESGLY”, the “soluble fraction (log2)” value was -0.703. On to “HMISDAEWKIMNVLWEEQPRTMMQITKELQEETGWTKHTVMTYLKRMESKKIIHYVEGEKAKLYYS”, for which the “soluble fraction (log2)” value was -0.136. With “HMISDDLYQAVLDFTLTQDTISISRLQQNFNLGWPRARQLYDQLMQNGIIEPPDEANSAKGAVVIANKRG”, the “soluble fraction (log2)” value was -1.06. Then “HMISIKEAVFPFSRFPGVDTLLGPEMKSTGEVMGLADNFGHAYAKSQIASGSKLPESGTLFVSVKNSD”, with 0.0851.

Regarding “HMISKRFQIDEENAHKRIDIFLSHEFDSISRGIVQELIVKGEVLVNDKVTKRNYKLKTGDLVDITINL”, the “soluble fraction (log2)” value amounted to 0.247. In the case of “HMITDQQKEQLSSLLKQAEAALAKAAANDQVLAAHKDEAVELLKSTSATSADAADLINELTELLKPYQ”, the “soluble fraction (log2)” value is -0.605. As for “HMITEDQVIARIGLLSPAEKSLLKDKLERFRRLTLSEQQHLREFHSALDNHDKRTDLLNVLRKYNDWVNQL”, the “soluble fraction (log2)” value was -0.736. Turning to “HMITEQEFQRVAAYVKNKAGINLNEKKVLVQGRLDSYMQRKGYSSYDEFMDRVERFPTGPEAEDLMNALTT”, the “soluble fraction (log2)” value was found to be 0.0246.

Take “HMITFRINQQSQVGLRLDKFIVQQMPDYSRTRIQSWIKTKNILVNGEGKKSGYALEFDDLVEVTIPE”: the “soluble fraction (log2)” value worked out at 0.0398. For the sequence “HMITGREMDVLEALWSSEKPLVASDIPKMKPSLSISSVQLALRNLVKKKLVEVADIVYSGTVLSRSYRP”, the “soluble fraction (log2)” value was -0.477. Then “HMITIDNYFNKEKELDFSSFPEALRKGHGFVSKATAHGSSWVSYHSSDAIKKTIDIYLSKLNEYLSNNAKA”, with 0.0989; and “HMITLYDLLGVSKTASSQEIKTAFKKKALQYHPDKNDGNPDKEEIFKRINMAYQVLGQPQSRANYDFSITP”, with 0.0886; and “HMITNMIIIMKPNASEEAIEKVKHLIESKGLQAHLSKGDEVTIVGVVGDKTRLHDSNIEISEGVDKIVNVT”, with -0.0219. For the sequence “HMITPAGVPPALLPVFDQFTLPDGTLRRGAVAAALRALYGPDAPQSGKRYQMEYDRVMAWHSQYFTSLH”, the “soluble fraction (log2)” value was -0.42.

As for “HMITPKQTAETLGIATSTLRRWASEFEPFLSLRTGVKRTYTTDDITTLKRVKDLFAQGLKTEQVREAL”, the “soluble fraction (log2)” value was no less than 0.43. For the sequence “HMITPNQAAVTLKVSTSTLRRWSSDFEPFLSPRKGVKRLYTIEDIATLKRIQGLYKQGMNTAQVQA”, the “soluble fraction (log2)” value was -0.0332. Then “HMITQQEFQQKLEALLSRAEAESFHIKKEEAESFFSGDELTGEQMKLVFDYLLSKKIIVEGYLK”, with 0.0629; and “HMITTEEVLNRIRKKVDHPATIRELQKALSIADDDRHRFRRRIRTLVASGALVRIRGNRYGLPSK”, with 0.0429. Then “HMITTWAGKATTDVYGRVDANPKADAVLVIKTGWTVQVVGSKTAPDGGTWYKLIYNGKTMYANSKFIVK”, with 0.00106.

Turning to “HMITVEAPMPGKVLSVNVKAGDKVEAGDVLLILEAMKMQNEIMAPEDGTVSDVRVSAGDTVATGDVMVV”, the “soluble fraction (log2)” value was -0.33. As for “HMIVIMAKESSPAELEGVKNRIESHPGLRPQVFDGVERIVVGVLGSIPPDLKDEIELLPGVIEVVPISK”, the “soluble fraction (log2)” value was -0.211. For “HMIVVLKHGVTEQQMRNLIAWFKDQGVDVHVSRGIYQTVLGLVGDTSDIDVDLLRMLDIVDAVKRIT”, the “soluble fraction (log2)” value was -0.785. As for “HMIVVMAADSSREDLDLVQGRIEARGLRAQISQGVERIVIGVLGSLPPDLKDEMELLPGVREVLVIS”, the “soluble fraction (log2)” value was -1.19.

In the case of “HMIYGNGVTDLKDLANGATIIIPADDSNETRALFLLQQEGLIKLPDDADAAKGVSTLDIVDGGGWVTSM”, the “soluble fraction (log2)” value is -0.381. Regarding “HMIYKLIADRLKNRINSDEFEVGDALPSEKALAGELEVSVMTIRKALTLLESEKLIVKRHGSGSYVARKSN”, the “soluble fraction (log2)” value stood at 0.0567. Then “HMIYRTTSVPIDNISTQKFNLQEGWIEMNKNEVEDFIRQKNLELVVTDSNVMLDKFALNGDPNKFKVFKY”, with 0.104; and “HMKADTSPEAQKKIIAAFEPYSVNKDQIEKLIQRRIDSITPAQVIRLRKILASLKDGMSSPEDWFE”, with 0.076; and “HMKAERLLALLTILLSGKRVSARWLSEELEVSERTVYRDVEALSEAGFPVYATTGRDGGFSLIDGF”, with -1.18. On to “HMKAKPTLLTPYEERLKGWLETDSRRPKRDRRTGLALFAKLQQEGFTGSYTRVTEYIRRWRDSGG”, for which the “soluble fraction (log2)” value was 0.0729. “HMKALPSAEDVALARESGRVLSTVLQTRAETQQIDFHDDKGAVRSVTLPTTALRLLLDVLTEIGQGNAV”: the “soluble fraction (log2)” value is -0.161. Regarding “HMKALRNQDVVVGKPLAMAVYDQHGVLLLGRGHVVISESQRQQLLERGFSIDAEQLGRLRAAIEATQRV”, the “soluble fraction (log2)” value was 0.0921.

For the sequence “HMKALYHQLVDLLKKRMESGMIPHDKLPSERELTAQYGVSRTTVRLALQELENTGYIYRRHGKGTFVSDI”, the “soluble fraction (log2)” value came to 0.1.

Turning to “HMKANIGDQVFTQLKDQIINGEWRPGDRIPSEAQLIQLFGVSRGTVRQAVQKLAGEGLIVTRHGEGSFVQG”, the “soluble fraction (log2)” value is -0.0317.

For “HMKAQLQHIIGSNIKLARNTQGYTQEGLAERAEISVEHLKQVERGKKMLSVESLVNVANALQVSVDSLV”, the “soluble fraction (log2)” value is -0.205. With “HMKAQVKSVLDDIPGIGQTRRKALMRYFKSLEKIREASVEELKEADAMNERAAQSVYAFFHK”, the “soluble fraction (log2)” value was -0.222.

In the case of “HMKAQVKSVLDEIPGVGPTRRKALMKHFTSIEEIKQAEFETLLEAEGMNRAAAQSVYDFFHN”, the “soluble fraction (log2)” value is -0.491.

The values are drawn from the domain aggregation screens of Martell et al. (2025).
